T1: Snc2p-M2-His6 (R75E R79E K82E) reconstituted into liposomes (S. cerevisiae, UniProt P33328 1-115, R75E | R79E | K82E)
T1 sequence: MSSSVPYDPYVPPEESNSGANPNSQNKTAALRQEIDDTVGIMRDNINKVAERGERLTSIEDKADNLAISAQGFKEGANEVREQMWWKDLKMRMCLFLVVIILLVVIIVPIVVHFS

B1: His-tagged Sec6p (pET46-Sec6) (natural protein)
chain: MSSDPLQQVCDLIKGDLSLERVRDIKEQLLKEKSVVEYQLNKESDKYYGEVEESLKLLNLSKNSVTSIKQQINEVNKLGNDNRFAINRYDILFRATKLYETVNTTSSIYDRIYNFVALMEHIERLLVAELAEDALETGCPHLLEIHFLLTSARDFQEQVVVMAKEATEDAQRTVMKLFSRLSGIISKFDKLLDGLTYDIVEMARAEQISLAIRLFKIYDLEEREDLRIEAIRNIIKKKEIEIEKSSIKKLPNSKNTARLQDETPKVIEYPTNKGLYQEIMSGTISTRTAPRGYKHFLINGINNSISEMFGEMREKYVGDQKFDVLDNMDWIFNELIIVKEHIANCCPPHWNIFEVYFDQYYKELHSLITDLVESEPETIIILDILAFDKTFQDTLKQDFGFTKSEVKSVIGDKEKETLFKDYLNLIVVKMTEWIGNLEKAEFDVFLERSTPPHSDSDGLLFLDGTKTCFQMFTQQVEVAAGTNQAKILVGVVERFSDLLTKRQKNWISKISEEIKKQINYNHKYDIDPESITPEDECPGGLVEYLIAVSNDQMKAADYAVAISSKYGKLVSKVYEKQITNHLEGTLDGFAEVAQCSSLGLITLMFDDLRKPYQEIFSKTWYMGSQAQQIADTLDEYLLDIKPQMNSVLFVNFIDNVIGETIIKFLTALSFEHSFKNKNNKFLEAMKRDFEIFYQLFVKVLDGNESKDTLITQNFTVMEFFMDLSCEPIDSILDIWQKYLEVYWDSRIDLLVGILKCRKDVSSSERKKIVQQATEMLHEYRRNMEANGVDREPTLMRRFVLEFEKQ

Target: B1
Assay: […], pH 7.4, 0.5 µg/µl BSA

Binder | binding result
Snc2p-His6, full-length Snc2p reconstituted into liposomes (natural protein) MSSSVPYDPYVPPEESNSGANPNSQNKTAALRQEIDDTVGIMRDNINKVAERGERLTSIEDKADNLAISAQGFKRGANRVRKQMWWKDLKMRMCLFLVVIILLVVIIVPIVVHFS | binds

Target: T1, Snc2p-M2-His6 (R75E R79E K82E) …
Assay: […], pH 7.4, 0.5 µg/µl BSA

Binder | fold reduction in binding against wild-type Snc2p liposomes [fold]
B1 | ≥ 2

Target: B1
Assay: pull-down

Binder | Kd [µM] | binding result
GST-Snc2p (cytosolic domain of Snc2p, 1–92 aa, fused to GST) (domain or fragment) MSSSVPYDPYVPPEESNSGANPNSQNKTAALRQEIDDTVGIMRDNINKVAERGERLTSIEDKADNLAISAQGFKRGANRVRKQMWWKDLKMR | 13 ± 6 | –
GERLTSIEDKADNLAISAQGFKRGANRVRKQMWWKDLKMR (domain or fragment) [GST-Snc2p fragment (53–92 aa)] | 18 | –
GST-Snc2p fragment (28–92 aa) (domain or fragment) TAALRQEIDDTVGIMRDNINKVAERGERLTSIEDKADNLAISAQGFKRGANRVRKQMWWKDLKMR | – | binds
GST-Snc2p E51A E54A (M5) (domain or fragment) MSSSVPYDPYVPPEESNSGANPNSQNKTAALRQEIDDTVGIMRDNINKVAARGARLTSIEDKADNLAISAQGFKRGANRVRKQMWWKDLKMR | – | binds
GST-Snc2p E51R E54R (M6) (domain or fragment) MSSSVPYDPYVPPEESNSGANPNSQNKTAALRQEIDDTVGIMRDNINKVARRGRRLTSIEDKADNLAISAQGFKRGANRVRKQMWWKDLKMR | – | binds
GST-Snc2p E60A D61A D64A (M3) (domain or fragment) MSSSVPYDPYVPPEESNSGANPNSQNKTAALRQEIDDTVGIMRDNINKVAERGERLTSIAAKAANLAISAQGFKRGANRVRKQMWWKDLKMR | – | binds
GST-Snc2p E60K D61R D64R (M4) (domain or fragment) MSSSVPYDPYVPPEESNSGANPNSQNKTAALRQEIDDTVGIMRDNINKVAERGERLTSIKRKARNLAISAQGFKRGANRVRKQMWWKDLKMR | – | binds
GST-Snc2p R75A (domain or fragment) MSSSVPYDPYVPPEESNSGANPNSQNKTAALRQEIDDTVGIMRDNINKVAERGERLTSIEDKADNLAISAQGFKAGANRVRKQMWWKDLKMR | – | binds
GST-Snc2p K82A (domain or fragment) MSSSVPYDPYVPPEESNSGANPNSQNKTAALRQEIDDTVGIMRDNINKVAERGERLTSIEDKADNLAISAQGFKRGANRVRAQMWWKDLKMR | – | binds
His-MBP-Sec9ct (416–651 aa) (domain or fragment) ARQQQEEDEAVDEIKQEIKFTKQSSVASTRNTLKMAQDAERAGMNTLGMLGHQSEQLNNVEGNLDLMKVQNKVADEKVAELKKLNRSILAVHVSNPFNSKRRRREREEQLKNRKIEEKLMREQTSQQLSQSTQRIEGAMNANNNISEVRERYQRKNVLEKAKRYQFENDEEDDEMELEIDRNLDQIQQVSNRLKKMALTTGKELDSQQKRLNNIEESTDDLDINLHMNTNRLAGIR | – | binds

Source: publication PMC3734085 (The Journal of Cell Biology, 2013)
